Source: patent US20190092827A1 (University of Texas, published 2019)

Target: the molecule itself
Assay: solution NMR spectroscopy, monomer-dimer equilibrium (homodimerisation)

B1: WT MIP-2 (chemokine CXCL2, also known as MIP-2 in mice) (ligand, mouse, UniProt P10889 28-100, looked up)
chain: AVVASELRCQCLKTLPRVDFKNIQSLSVTPPGPHCAQTEVIATLKGGQKVCLDPEAPLVQKIIQKILNKGKAN
notes: also called native MIP-2; wild-type (WT) chemokine
Kd: 10 µM
